Patent publication US20250042956A1 (University of California, published 2025)

Legend:
Experiment in all cases: IP-MS rep 2
[1] = biological target: T1, AT3G49850.1 TRB3 (Arabidopsis thaliana, UniProt Q9M2X3 1-295)
T1 construct: Endogenous protein found by mass spectrometry
T1 sequence: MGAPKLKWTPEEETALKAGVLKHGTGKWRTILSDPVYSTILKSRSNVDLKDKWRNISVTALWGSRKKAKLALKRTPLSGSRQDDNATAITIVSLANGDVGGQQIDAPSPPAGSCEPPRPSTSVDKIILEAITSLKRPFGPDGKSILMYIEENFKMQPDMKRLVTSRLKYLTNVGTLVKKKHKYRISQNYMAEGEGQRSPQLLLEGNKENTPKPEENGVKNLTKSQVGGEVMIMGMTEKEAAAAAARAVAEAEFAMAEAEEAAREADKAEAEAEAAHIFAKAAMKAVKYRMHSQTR
Summary of the method: (§1)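 Peptide counts for co-purified proteins come from mass spectrometry of proteins pulled down from Arabidopsis floral buds with anti-FLAG magnetic beads. Ten grams of unopened buds from wild-type and FLAG-tagged transgenic lines were ground in liquid nitrogen and homogenised in 25 mL IP buffer. Lysates were held with 250 μL anti-FLAG M2 magnetic beads at 4° C for 2 hours, and bound proteins were eluted in TBS with 250 μg/mL 3×FLAG peptides.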

[2] = biological target: T2, AT2G23380.1 CLF (Arabidopsis thaliana, UniProt P93831 1-902)
T2 construct: Endogenous protein found by mass spectrometry; also called CURLY LEAF
T2 sequence (looked up): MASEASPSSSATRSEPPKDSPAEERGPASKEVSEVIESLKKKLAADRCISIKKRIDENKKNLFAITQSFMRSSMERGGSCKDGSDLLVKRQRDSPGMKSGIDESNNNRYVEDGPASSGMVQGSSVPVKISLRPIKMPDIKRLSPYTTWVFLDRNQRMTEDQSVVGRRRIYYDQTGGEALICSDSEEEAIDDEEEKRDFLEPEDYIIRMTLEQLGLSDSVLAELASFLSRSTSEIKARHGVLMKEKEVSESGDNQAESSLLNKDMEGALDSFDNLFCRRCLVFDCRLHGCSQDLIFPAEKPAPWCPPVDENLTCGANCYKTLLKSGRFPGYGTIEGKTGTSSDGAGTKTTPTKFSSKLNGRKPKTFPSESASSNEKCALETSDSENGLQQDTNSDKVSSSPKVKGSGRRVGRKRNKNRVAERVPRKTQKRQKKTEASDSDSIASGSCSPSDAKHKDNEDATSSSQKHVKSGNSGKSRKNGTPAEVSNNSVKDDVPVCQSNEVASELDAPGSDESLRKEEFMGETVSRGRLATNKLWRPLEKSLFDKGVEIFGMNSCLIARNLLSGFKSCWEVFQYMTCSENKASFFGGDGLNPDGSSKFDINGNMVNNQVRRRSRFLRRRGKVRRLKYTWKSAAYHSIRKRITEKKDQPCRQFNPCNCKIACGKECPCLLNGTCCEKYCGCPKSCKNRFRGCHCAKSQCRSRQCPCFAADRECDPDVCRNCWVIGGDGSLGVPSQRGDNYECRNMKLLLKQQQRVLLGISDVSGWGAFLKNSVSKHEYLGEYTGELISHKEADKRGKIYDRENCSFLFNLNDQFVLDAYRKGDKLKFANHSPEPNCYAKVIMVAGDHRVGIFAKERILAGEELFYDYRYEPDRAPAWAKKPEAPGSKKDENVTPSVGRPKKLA
Summary of the method: as §1

[3] = biological target: T3, AT1G49950.3 TRB1 (Arabidopsis thaliana, UniProt Q8VWK4 1-300, limits assumed)
T3 construct: Endogenous protein found by mass spectrometry
T3 sequence: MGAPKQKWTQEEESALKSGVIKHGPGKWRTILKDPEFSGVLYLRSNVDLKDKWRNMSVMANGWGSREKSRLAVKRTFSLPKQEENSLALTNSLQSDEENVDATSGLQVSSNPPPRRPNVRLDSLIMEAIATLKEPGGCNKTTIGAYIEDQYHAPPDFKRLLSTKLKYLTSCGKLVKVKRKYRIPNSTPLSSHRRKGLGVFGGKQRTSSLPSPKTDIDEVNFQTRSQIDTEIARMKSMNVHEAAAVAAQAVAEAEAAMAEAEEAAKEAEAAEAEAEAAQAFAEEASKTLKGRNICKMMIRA
Summary of the method: as §1

[4] = biological target: T4, AT4G35510.1 TRBIP1 (Arabidopsis thaliana)
T4 construct: Endogenous protein found by mass spectrometry
T4 chain: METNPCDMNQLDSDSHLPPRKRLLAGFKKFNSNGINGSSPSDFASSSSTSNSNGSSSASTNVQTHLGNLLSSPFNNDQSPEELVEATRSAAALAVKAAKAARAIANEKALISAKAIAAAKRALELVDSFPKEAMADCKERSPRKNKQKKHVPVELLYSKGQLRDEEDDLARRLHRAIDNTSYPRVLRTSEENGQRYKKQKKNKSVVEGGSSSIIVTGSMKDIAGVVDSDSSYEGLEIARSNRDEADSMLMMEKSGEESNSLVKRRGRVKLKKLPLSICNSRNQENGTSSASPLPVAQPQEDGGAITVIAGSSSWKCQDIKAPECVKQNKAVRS
Summary of the method: as §1

B1: TRBIP2 (bait of the TRBIP2 IP-MS) (other, not shown: small tags and cut ends)
chain: MATNACLESDSLLPPRKRLLAGFKNQNSRISNESPSPPFASSSSSTTTSNGSSASAVVHTHHLDHLLNDQTRSPEELAQASKATAALAVKVAKAARATANEKAIIASKAVAAAKNALELFASFPAAETVSCKEPRLIRAINNSPRVLTDCSGHRNKKQKTLTSTMNDGNDVAGVVDSDDGTRVNGKLLLCDNTLKEKTEEESSSLGKRRGRVKLPLSMCAYKDQENGITLEENNLSVSKSEGYNGGVAQVIERPSWKCQDLKSPECVKQNKVVRS
notes: tag and its position not described; also called TRBIP2-1; TRBIP2-2
Q: Which results are given for B1?
A: IP-MS count [1]: 6; IP-MS count [2]: 0; IP-MS count [3]: 5; IP-MS count [4]: 0
